# Legend:
# [1] = system: wild type TF-1 TpoR expressing cells; test: Flow cytometry of 4D7 binding to the cell surface, wild type cells; assay type: cell-based, human; details: PE-conjugated 4D7; wild type TF-1 TpoR cells
# [2] = system: primary CD34+ cells from patients with CALR mutant myelofibrosis; test: TPO-independent megakaryocyte colony formation on collagen-based medium (MegaCult); assay type: cell-based, human
# Source text: Patient samples were collected with informed consent from the South Australian Cancer Research Biobank (SACRB: Adelaide, Australia). Primary CD34+ stem/progenitor cells from peripheral blood samples from patients with JAK2^V617F or CALR mutant myelofibrosis were purified by flow cytometry using CD34-APC antibody, anti-human CD45RA Brilliant Violet 605, anti-CD90 FITC, anti-human CD123-PE, anti-human CD38 PE-Cy7, or with CD34-APC antibody, anti-human CD3 FITC, anti-human CD19-PE (clone H1B19) and anti-human CD14 PE-Cy7.
# For megakaryocyte differentiation assays, CD34+ cells derived from cord blood or from patient peripheral blood mononuclear fractions were plated in Megacult (MegaCult™-C Collagen and Medium with Lipids) with added IL-3 and IL-6 (10 ng/ml) in the presence or absence of 50 ng/mL TPO. Cells were plated at an initial density of 1800 cells/well and cultured for 12 days at 37° C. and 5% CO2. […] Culture media was replenished every 3 days and cells were assessed for megakaryocyte differentiation on day 12 using anti-human CD41/61 PE-Cy7 (Clone A2A9/6) and CountBright beads (Thermo Fisher) to enumerate cell numbers. […] Cells were seeded at approximately 100 cells per well and were cultured in the presence of 20 μg/mL 4D7 or control IgG antibody and scored for colony and blast forming units at 12-14 days.
# [3] = system: TF-1 TpoR CALR^del61 cells in NSG mice; test: Bone marrow engraftment xenograft model; assay type: in vivo
# Experimental: All procedures were approved by the South Australian Health and Medical Research Animal Ethics Committee (Protocol SAM21-018). Bone marrow engraftment model: 4-6 week old NSG mice were x-ray irradiated with 150 cGy and 5×10^5 cells (TF-1-TpoR CALR^del61) or 5×10^4 cells (100 nM ruxolitinib resistant TF-1 TpoR CALR^del61) were intravenously injected into mice. […] Tail vein bleeds were taken at 3 weeks and analysed via flow cytometry to determine human leukaemia content in the peripheral blood. Leukemic cells were PI-, mCD45.1, hCD33+, zsGreen+. Mice were monitored daily and euthanized once clinical symptoms were observed. At the time of euthanasia, cardiac puncture was performed to obtain both peripheral blood and serum for analysis. Additionally, bone marrow from both femurs, spine and spleens were analysed for leukemic content as detailed above. Chloroma model: 4-6 week old NSG mice were anaesthetised by isoflurane inhalation and shaved on the left back/flank and 1×10^7 cells were injected into the mice. Cells were pre-treated with 20 μg/mL IgG or 4D7 for 1 hour prior to injection. […] Tumour progression was assessed through caliper measurements every 2 days. Mice were euthanised once tumours began to impede movement, show signs of ulceration or if any measurement of the tumour exceeded 30 mm (length, width or depth).
# [4] = system: TF-1 TpoR CALR^del61 cells; test: Flow cytometry of 4D7 binding to the cell surface, mutant CALR cells; assay type: cell-based, human; details: PE-conjugated 4D7; vs unstained or isotype-PE control
# Experimental: TF-1 cells expressing TpoR and mutant CALR were incubated for 30 minutes 4D7 conjugated to phycoerthryin (PE) (Abcam, #AB102918) or IgG2a PE isotype control (ThermoFisher #12-4321-42) at the concentrations specified after pre-incubation with mouse serum. Cells were washed 1 × before analysis on a CytoFLEX (Beckman Coulter).
# [5] = system: TF-1 expressing the PTPN11 E76K mutation; test: Cell proliferation, trypan blue exclusion; assay type: cell-based, human; details: 10 or 20 μg/mL
# Experimental: (§1) A. Cytokine dependent TF-1 TpoR cells with an overexpression of WT CALR cultured in the absence of TPO, 10 ng/ml hTPO and 10 or 20 μg/mL 4D7 anti-mutant CALR antibody or 20 μg/mL control IgG antibody for 5 days and the number of trypan blue negative cells were counted every 24 hours (n=3). B. Cytokine dependent TF-1 CALR^del52 cells, lacking TpoR were cultured in the presence of 2 ng/mL GM-CSF and 10 or 20 μg/mL 4D7 or 20 μg/mL control IgG antibody (n=3). C. Cytokine dependent TF-1 CALR^del61 cells, lacking TpoR were cultured in the presence of 2 ng/ml GM-CSF and 10 or 20 μg/mL 4D7 or 20 μg/mL control IgG antibody (n=3). D. MARIMO cells from which the CALR^del61 mutation was originally amplified were cultured in the presence of 2, 10 or 20 μg/mL 4D7 or 20 μg/mL control IgG antibody (n=3). E. Cytokine independent SET2 cells which harbour the pathogenic JAK2^V617F mutation were cultured in the presence of 2, 10 or 20 μg/mL 4D7 or 20 μg/mL control IgG antibody (n=3). F. Cytokine independent TF-1 PTPN11^E76K cells were cultured in the presence of 10 or 20 μg/mL 4D7 or 20 μg/mL control IgG antibody (n=3).
# (§2) In brief, cells were seeded at 5×10^4/mL in standard growth media, with any necessary cytokines, and the addition of 20 μg/mL IgG or 2, 10 or 20 μg/mL 4D7. Cells were seeded in triplicate and each well was counted in triplicate every 24 hours for 5 days using trypan blue exclusion.
# [6] = system: TF-1 cells with overexpression of wild type CALR; test: Cell proliferation, trypan blue exclusion; assay type: cell-based, human; details: 10 or 20 μg/mL; 10 ng/ml hTPO
# Experimental: as §1, §2
# [7] = system: TF-1 CALR^del61 cells, lacking TpoR; test: Cell proliferation, trypan blue exclusion; assay type: cell-based, human; details: 2 ng/ml GM-CSF; 10 or 20 μg/mL
# Experimental: as §1, §2
# MARIMO cells = test: Cell proliferation, trypan blue exclusion; assay type: cell-based, human; details: 2, 10 or 20 μg/mL
# Experimental: as §1, §2
# JAK2 V617F SET2 cells = test: Cell proliferation, trypan blue exclusion; assay type: cell-based, human; details: 2, 10 or 20 μg/mL
# Experimental: as §1, §2
# [8] = system: TF-1 CALR^del52 cells, lacking TpoR; test: Cell proliferation, trypan blue exclusion; assay type: cell-based, human; details: 2 ng/mL GM-CSF; 10 or 20 μg/mL
# Experimental: as §1, §2
molecule,measurement,setting,value
"4D7: rat monoclonal IgG2a antibody against the mutant CALR neoepitope; VH SEQ ID NO: 5, VL SEQ ID NO: 7 (antibody, listed as Rattus rattus, V domains shown) VH: QVQLQQSGAELAKPGSSVKISCKASGYTFTNYDMSWIKQRPGQALEWIGAINPGNGVTDYNEKFRGKATLTVDKSSSTAFMQLSSLTPEDTAVYHCAREYRDNYGYFDYWGQGVMVTVSS VL: DIVLTQTPVSLSVTLGDQASISCRSSQSLEYSDGYTYLDWFLQKPGQSPQLLIYEVSSRFSGVPDRFIGRGSGTDFTLKISRVEPEDLGVYYCFQATHDPFTFGSGTKLEIK",binding to the cell surface,[1],but not wild type TF-1 TpoR expressing cells
same,decrease of primary TPO-independent megakaryocyte colonies (colony-forming unit-mega),"[2]; 20 μg/mL vs IgG, n=4 patient samples",46%
same,size of megakaryocyte colonies,[2]; patient with a type 2 mutation,substantially smaller
same,peripheral blood engraftment of human CD33+ myeloid cells,"[3]; 3 weeks, 12.5 mg/kg twice weekly i.p. starting day 7, P=0.01",0.04%
same,"survival, log-rank hazard ratio","[3]; 4D7 vs IgG, 12.5 mg/kg twice weekly, P=0.003",0.24
same,binding to the cell surface,[4],Specific binding
same,inhibition of proliferation,[5],no inhibition
same,inhibition of proliferation,[6],No inhibition
same,effect on proliferation,[7],unaffected
same,inhibition of proliferation,MARIMO cells,did not show inhibition
same,inhibition of proliferation,JAK2 V617F SET2 cells,no inhibition
same,effect on proliferation,[8],unaffected
